# Measurements from patent publication US20190106487A1 (Sanofi, published 2019).
# Where a chain is given by its changes, count along the chain named.
# B1: P013.S.01.B.D02 (antibody, V domains shown)
# VH: LEQSGGGAEGGLVKPGGSLELCCKASGFSLTTNYWICWVRQAPGKGLEWIGCIYANSVGSTYYASWVNGRFTLSRDIDQSTGCLQLNSLTAADTAMYYCARVDPGYSFDAFDPWGPGTLVTVSS
# VL: ALVMTQTPSPVSAAVGGTVTINCQASEDIYSNLAWFQQKPGQPPKLLIYRASTLASGVPSRFSGSGSGTEFTLTISALQSDDAATYYCLGVRTYFNTLNNSFGGGTEVVVK
# notes: rabbit monoclonal antibody; also called P013.A.00022.E06
# B2: P013.S.01.B.D05 (antibody, V domains shown)
# VH: EQSGGGAEGGLVKPGGSLELYCKASGFSLSSDAWICWVRQAPGKGLEWIGCIYAGSASNTYYATWVNGRFTLSRDIAQSTGCLQLNSLTAADTAMYYCARDRGYDDYGDITRLDLWGQGTLVTVSS
# VL: B1 VL with M4L, A77G, R92Y, F95L, N96S, T97D, N99F, N100F, S101V
# notes: rabbit monoclonal antibody; also called P013.A.00085.G03
# B3: P013.S.01.B.G02 (antibody, V domains shown)
# VH: QSVEESGGRLVTPGTPLTLTCTVSGFSLSSYYMSWVRQAPGKGLEWIGYIYAAGPITYYATWAKGRFTISKTSTTVDLKITSPTTEDTATYFCVRDGSGSGTYGYNGMDLWGPGTLVTVSS
# VL: AYDMTQTPASVEAAVGGTVNIKCQASQSISNWLAWYQQKPGQRPKLLIYRASTLASGVSSRFKGSGSGTQFTLTISGVESADAATYYCQQGASTTDVDNVFGGGTEVVVK
# notes: rabbit monoclonal antibody; also called P013.A.00085.B11
# B4: P013.S.02.B.A01 (antibody, V domains shown)
# VH: B3 VH
# VL: B3 VL with N20T
# notes: rabbit monoclonal antibody; also called P013.A.00087.A07
# B5: P013.S.01.B.H03 (antibody, V domains shown)
# VH: B3 VH
# VL: B3 VL with R43P
# notes: rabbit monoclonal antibody; also called P013.A.00045.A02
# B6: P013.S.01.B.G05 (antibody, V domains shown)
# VH: LEQSGGGAEGGLVKPGGSLELCCKASGFSLSSAYWICWVRQAPGKGLEWVGCIYADSSSITYYASWVNGRFTLSRDIDQSTGCLQLNSLTAADTAMYYCARDYGGSGYNFNLWGQGTLVTVSS
# VL: ALVMTQTPSPVSAAVGGTVTISCQASEDIYSNLAWYQQKRGQPPKLLIYYASTLASGVPSRFSGSGSGTEFTLTISGLQSDDAATYYCLGVCTYINANGWDNAFGGGTEVVVK
# notes: rabbit monoclonal antibody; also called P013.A.00088.C10
# B7: P013.S.02.B.G04 (antibody, V domains shown)
# VH: QSLEESGGRLVTPGTPLTLTCTVSGFSLSRCAMIWVRQAPGKGLEWIGFIGRGGSTWYASWVNGRFTISKTSTTVDLKITSPTTEDTATYFCARDGDYSDYYTFDLWGQGTLVTVSS
# VL: DVVMTQTPASVSERVGGTVTIKCQASQSIGSNLAWYQQKPGQPPKLLIYGASNLESGVPSRFSGSGSGTEFTLSISGVQSADAATYYCQCSGYDTTGVFPFGGGSEVVVK
# notes: rabbit monoclonal antibody; also called P013.A.00015.A11
# B8: P013.S.02.B.C05 (antibody, V domains shown)
# VH: QSLEESGGRLVTPGTPLTLSCTASGFSLSTYYMSWVRQAPGKGLEWIGYMHVGGFPVYASWAKGRFTISKTSTTVDLKITSPTIEDTATYFCARDFGPPNWTLDLWGQGTLVTVSS
# VL: DVVMTQTPASVEAAVGGTVTIKCQASQSISSYCSWYQQKPGQPPKLLIYRASTLESGVPSRFKGSGSGTEFTLTISDLESADAATYYCQSSYYDLLGNGFGGGTEVVVK
# notes: rabbit monoclonal antibody; also called P013.A.00085.F10
# B9: P013.S.01.B.F02 (antibody, V domains shown)
# VH: QEQLVESGGGLVQPEGSLTLTCTASGFSFSSNYWMCWVRQAPGKGLEWIACIYTGGSGVTYYASWAKGRFTLSKTSSTTVTLQVTSLTAADTATYFCARDLVVVTSFNLWGQGTLVTVSS
# VL: ALMMTQTPSPVSAAVGGTVTINCQASEDIYSNLAWYQQKPGQPPKLLIYSASTLASGVPSRFSGSGSGTEFTLTISGVQSDDAATYYCLGVCTDISVDDVYNSFGGGTEVVVK
# notes: rabbit monoclonal antibody; also called P013.A.00043.D08
# B10: P013.S.02.B.B01 (antibody, V domains shown)
# VH: QSLEESGGRLVTPGTPLTLTCTVSGFSLSGYAMSWVRQAPGKGLEWIGIIYAGSGGTYYASWVKGRFTISKTSTTVDLKITSLTTEDTATYFCARAVPDDSAGKKLWGQGTLVTVSS
# VL: DIVMTQTPASVEAAVGGTITINCQASENIYSSLAWYQQKPGQPPKLLIYDASTLASGVSSRFKGSGSGTQFTLTISGVQSDDAATYYCQSYYCSVSSSCGYGFGGGTEVVVK
# notes: rabbit monoclonal antibody; also called P013.A.00088.A11
# B11: P013.S.01.B.F03 (antibody, V domains shown)
# VH: LEQSGGGAEGGLVKPGGSLELCCKASGFSLGSSYWICWVRQAPGKGLEWIGCIYAGSSGITYYASWVSGRFTLSRDIDQSTGCLQLNSLTAADTAMYYCARDIYASTSGYDLWGQGTLVTVSS
# VL: ALVMTQTPSPVSAAVGGTVTINCQASEDIYSNLAWFQQKPGQPPKLLIYQASTLASGVPSRFSGSGSGTEFTLTISGLQSDDAAAYYCLGVCTYIGADNTLYNTFGGGTEVVVK
# notes: rabbit monoclonal antibody; also called P013.A.00025.F02
# Target: T1, human IL-1RAcP on 293T/17-FR cells (human, UniProt Q9NPH3 21-570)
# T1 sequence (looked up): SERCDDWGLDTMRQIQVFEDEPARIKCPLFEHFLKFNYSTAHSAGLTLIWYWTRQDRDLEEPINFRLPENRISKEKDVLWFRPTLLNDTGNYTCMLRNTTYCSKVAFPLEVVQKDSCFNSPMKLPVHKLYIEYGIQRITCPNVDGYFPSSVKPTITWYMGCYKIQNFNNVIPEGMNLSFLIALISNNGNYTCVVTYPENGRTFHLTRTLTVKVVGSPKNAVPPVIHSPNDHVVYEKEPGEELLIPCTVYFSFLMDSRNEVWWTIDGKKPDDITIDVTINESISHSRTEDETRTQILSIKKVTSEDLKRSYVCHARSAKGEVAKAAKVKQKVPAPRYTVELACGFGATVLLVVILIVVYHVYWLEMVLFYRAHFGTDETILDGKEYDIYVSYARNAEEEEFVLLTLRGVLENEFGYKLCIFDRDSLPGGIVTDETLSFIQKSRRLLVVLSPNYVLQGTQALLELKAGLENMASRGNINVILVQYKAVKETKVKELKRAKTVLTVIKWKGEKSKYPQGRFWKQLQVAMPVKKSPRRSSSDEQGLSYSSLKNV
# Assay: cell-based or functional assay
Binder,"functional reporter gene assay (% inhibition), 0.04 µg/mL mAb","functional reporter gene assay (% inhibition), 0.2 µg/mL mAb","functional reporter gene assay (% inhibition), 1 µg/mL mAb","functional reporter gene assay (% inhibition), 5 µg/mL mAb","primary supernatant functional assay (% inh.), NF-kB luciferase reporter"
B1,44%,68%,88%,92%,99%
B2,26%,66%,77%,62%,93%
B3,43%,52%,41%,72%,71%
B4,7%,45%,67%,87%,67%
B5,28%,49%,59%,60%,43%
B6,21%,50%,82%,93%,81%
B7,-1%,0%,4%,-18%,27%
B8,7%,26%,35%,52%,66%
B9,45%,59%,80%,93%,76%
B10,24%,39%,75%,94%,95%
B11,26%,59%,87%,94%,102%

# Target: T2, rhIL-1RAcP/Fc Chimera (human, UniProt Q9NPH3 21-359)
# T2 construct: also called P013_03; P013-03
# T2 sequence (looked up): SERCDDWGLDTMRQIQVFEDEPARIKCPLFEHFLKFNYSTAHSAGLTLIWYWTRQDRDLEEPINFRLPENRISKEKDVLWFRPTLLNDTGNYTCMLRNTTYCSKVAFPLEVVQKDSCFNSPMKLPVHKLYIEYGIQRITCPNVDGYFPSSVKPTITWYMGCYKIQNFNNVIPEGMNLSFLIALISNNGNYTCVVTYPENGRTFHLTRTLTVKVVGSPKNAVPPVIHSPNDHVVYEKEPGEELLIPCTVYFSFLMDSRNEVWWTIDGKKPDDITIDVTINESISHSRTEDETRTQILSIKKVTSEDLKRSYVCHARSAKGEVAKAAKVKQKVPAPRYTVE
# Assay: ELISA, recombinant purified mAb
row,Binder,EC50
1,B3,0.049 µg/mL
2,B4,0.073 µg/mL
3,B5,0.104 µg/mL
4,B6,0.817 µg/mL
5,B11,0.44 µg/mL

# Target: T2, rhIL-1RAcP/Fc Chimera
# Assay: ELISA, primary supernatant, coated hu-IL-1RAcP-Fc
# From the text: Microtiter plates were coated IL-1RACP and/or IL12Rβ1 protein (recombinant Fc chimeric conjugates of human IL-1RACP or IL12Rβ1). After a blocking process, specific antibodies from B-cell supernatants bind to the targets and are then detected by a POD-labeled anti-rabbit IgG antibody. The IL12Rβ1 binding was used as a counterscreen. IL-1RACP protein was tagged with a linker, huFc and His like the IL12Rβ1 protein. Antibodies which bind to the tag were positive in both assays, whereas antigen specific antibodies just bound to IL-1RACP and not to IL12Rβ1.
# 12.5 μL 0.5 μg/mL IL-1RACP protein in PBS was transferred to a microtiter plate, incubated and washed 3× with Wash Buffer. 90 μL Block Buffer was added to each well, incubated and washed. 12.5 μl Standard Antibody (rabbit mAb against IL-1RAcP, anti IL12Rbeta1 antibody: IL-12Rbeta1 antibody; GeneTex; Cat. No. GTX103917) or sample diluted in ELISA buffer was added, incubated and washed. 12.5 μl 1:5000 POD-Antibody (Anti-rabbit IgG, peroxidase-linked species-specific Fab2 fragment (from donkey) (ECL); assay dilution: 1:5000) in Elisa Buffer was added, incubated and washed. 15 μl TMB was added and 15 μl HCl was added after sufficient development. Absorbance (Optical Density O.D.) was read at 450 nm/620 nm.
row,Binder,hu-IL1RaP ELISA (OD)
1,B1,4 OD
2,B2,3.4 OD
3,B3,3.7 OD
4,B4,3.8 OD
5,B5,3.5 OD
6,B6,3.3 OD
7,B7,2.9 OD
8,B8,3.2 OD
9,B9,3.4 OD
10,B10,3.6 OD
11,B11,3.4 OD
